Measured values published in patent US5624904A, “Method for treating gram positive septicemia” (Massachusetts Institute of Technology, priority 1993, dated 1997).

Experiments:
soluble MSRP = assay: bead-binding competition assay: ligands interfering with binding of labeled soluble receptor to poly G beads, M-BSA beads or LTA; details: inhibitor at 400 μg/ml
Protocol: The ability of the soluble MSRP to block scavenger receptor-mediated cellular metabolism of known MSRP ligands, such as radiolabeled endotoxin, whole Gram-positive bacteria, or LTA, is measured by competitive inhibition assays. […] This bead-binding assay can be used to measure the association of endotoxin, lipid IVA, LTA, and similar molecules, to soluble forms of the MSRP.

Streptococcus pyogenes = assay: microbial binding assay (whole cell assay) of [35S]s-bSR-I
Protocol: (§1) Gram-positive bacteria were grown overnight either on LB agar plates (L. monocytogenes, B. subtilis) or on 5% sheep blood agar plates (all other organisms). Fresh colonies were inoculated into Todd Hewitt Broth (DIFCO) and were grown to stationary phase (16-18 hours; 1×10^9 CFU/1 ml) at 37° C. without shaking. Initial experiments indicated greater binding of MSRP to organisms grown to stationary phase compared to organisms used at log phase. Thus, stationary phase organisms were used in all experiments, although results were similar for log phase organisms.
(§2) All bacterial strains were harvested by centrifugation at 3500×g for 10 minutes and washed twice in cold Buffer B (20 mM Tris base at pH 8.0/150 mM NaCl/0.05% NAN3) before resuspending to a final density of approximately 1×10^9 bacteria/ml (O.D.600 =2.0).
(§3) [^35 S]methionine-labeled conditioned medium was prepared from transfected CHO[s-bSRI]-A2 cells and untransfected CHO cells. The media were designated [^35 S]s-bSR-I medium (containing s-bSR-I) and [^35 S]control medium (containing no s-bSR-I) respectively. As described by D. Resnick et al., 268 J. Biol. Chem. 3538-3545 (1993), CHO[s-bSR-1]-A2 and untransfected CHO cells were plated at a density of 9×10^5 cells/100 mm dish in medium B. Cells were grown to 80% confluence (approximately 48 hours), washed, and metabolically labeled by addition of 4.5 ml of medium A prepared with methionine- and cysteine-freeHam's F-12 and supplemented with 0.2 mM L-cysteine, and 80 μCi/mi [^35 S]methionine (Trans ^35 S-label with 70% methionine, purchased from ICN Biomedicals, Irvine, Calif.). After a 5 hour incubation at 37° C., supernatants were collected, and protease inhibitors and Buffer A+BSA (20 mM Tris base at pH 8.0/150 mM NaCl/1 mM CaCl2; containing 2 mg/ml bovine serum albumin and 0.05% NAN3) were added at final concentrations of 1 mM phenylmethylsulfonylfluoride (PMSF) (Sigma, St. Louis, Mo.), 1 μM leupeptin (Sigma), and 1 μM pepstatin (Sigma); 2:1 volume ratio of supernatant to buffer. The samples were then clarified by centrifugation (1000×g, 15 minutes, 4° C.) and stored in Falcon 2099 tubes that had been precoated with Buffer A+BSA.
(§4) Thirty minutes prior to binding assays, unlabeled L-methionine ((Sigma, St. Louis, Mo.) at 10 mM final concentration was added to suspensions of microorganisms grown as described above to minimize incorporation of free [^35 S]methionine into microbial proteins during the assays. One ml assay mixtures containing 200 μl of bacterial suspension (approximately2×10^8 bacteria), 50 μl of Buffer A (20 mM Tris base at pH 8.0/150 mM NaCl/1 mM CaCl2), and 750 μl of either [^35 S]s-bSR-I or [^35 S]control medium were prepared in microcentrifuge tubes and incubated overnight on a rotator at 4° C. Maleylated bovine serum albumin (M-BSA) was coupled to CNBr-activated Sepharose™ (Pharmacia Fine Chemicals, Piscataway, N.J.) at approximately 3 mg M-BSA/mi hydrated resin. Suspensions of M-BSA-coupled Sepharose™ beads (M-BSA beads) (25 μl ) were used in place of microorganism suspensions as positive controls.
(§5) After the overnight incubation, the bacteria or beads were pelleted by centrifugation in a microcentrifuge at 12,500×g for 5 minutes at 4° C. and washed twice with cold buffer A. In experiments examining the ability of LTA to inhibit the binding of the s-bSR-I to M-BSA beads, the beads were allowed to settle by gravity before each washing step, to prevent pelleting of LTA micelies. The washed pellets were then resuspended in SDS-PAGE sample buffer containing 2% β-mercaptoethanol, boiled for 5 minutes, and insoluble material was removed by centrifugation at 12,500×g for 2 minutes. The reduced samples were fractionated by electrophoresis through 10% polyacrylamide gels, as described by Resnick et al. (1993), and the labeled proteins were visualized by autoradiography with Kodak X-AR film. […]

Enterococcus hirae = assay: as above
Protocol: as §1, §2, §3, §4, §5

Streptococcus agalactiae = assay: as above
Protocol: as §1, §2, §3, §4, §5

P388D1 cells = assay: cell binding assay: FITC-labeled S. pyogenes T1/195/2 bound to macrophage-like cells expressing MSRP; assay type: cell-based, murine; details: 30 minutes 37° C., mean ± SD of three experiments, without poly G 72±8
Protocol: The ability of poly G to inhibit S. pyogenes binding was used in experiments to examine the interaction of FITC-labeled pyogenes (strain T1/195/2) with a cultured murine macrophage-like cell line, P388D1, shown previously to express MSRP by J. Ashkenas et al., 34 J. Lipid Res. 983-1000 (1993).
P388D1 cells were maintained in dishes in Ham's F-12 with 10% fetal calf serum, 100 units/ml penicillin, and 100 μg/ml streptomycin. For experiments, approximately 12,500 cells were plated on 1 cm glass cover slips, in media lacking antibiotics. Cells were allowed to adhere for at least 24-36 hours, then washed in Ham's F-12 containing 10% fetal calf serum. S. pyogenes, either unlabeled or FITC-labeled, was added (final dilution of 1:250 from a stock solution of O.D.600 =1.0) in the presence or absence of varying concentrations of poly G. Mixtures were incubated for 30 minutes at 37° C. in 5% CO2, then washed three times in PBS, and fixed with 100% cold methanol. Samples containing non-FITC labeled organisms were Gram-stained, then cover slips were mounted with Moviol and DAPCO. Slides were viewed in blinded fashion by two observers using fluorescence and phase contrast microscopy and a Nikon Microphot FXA epifluorescence microscope. The results (bacteria bound per 100 P388D1 cells) represent the means ± standard deviations determined from three experiments in which at least 100 P388D1 cells were counted for each condition.

Gram-positive bacteria = assay: microbial binding assay (whole cell assay), all species and strains of Table I; details: for binding of [35S]s-bSR-I to Gram-positive bacteria: all species and strains tested (Table I)
Protocol: as §1, §2
as §3, with “The samples were then clarified by centrifugation (1000×g, 15 minutes, 4° C.) and stored in Falcon 2099 tubes that had been precoated with Buffer A+BSA.” left out

Staphylococcus aureus = assay: microbial binding assay (whole cell assay) of [35S]s-bSR-I
Protocol: as §1, §2, §3, §4, §5

Bacillus subtilis = assay: as above
Protocol: as §1, §2, §3, §4, §5

Listeria monocytogenes = assay: as above
Protocol: as §1, §2, §3, §4, §5

Streptococcus mutans = assay: as above
Protocol: as §1, §2, §3, §4, §5

S. pneumoniae = assay: as above; parameters: species or system Streptococcus pneumoniae; details: two encapsulated and one rough strain
Protocol: as §1, §2
[^35 S]methionine-labeled conditioned medium was prepared from transfected CHO[s-bSRI]-A2 cells and untransfected CHO cells. The media were designated [^35 S]s-bSR-I medium (containing s-bSR-I) and [^35 S]control medium (containing no s-bSR-I) respectively. […]

In the case of “maleylated BSA: maleylated bovine serum albumin, MSRP ligand”, the “competition with binding of labeled soluble receptor to poly G beads, M-BSA beads, or LTA” value (“competition with binding … or LTA” below) (soluble MSRP) is reported as “successful competitors”.

poly C was tested, and the “competition with binding … or LTA” value (soluble MSRP) was “failed to compete”.

With “polyGuanosine [poly G, reference compound]” the “competition with binding of S. pyogenes to s-bSR-I” value (Streptococcus pyogenes; poly G 400 μ/ml added to assay mixture) was “effective competitor”, the “competition with binding of receptor to Enterococcus hirae” value (Enterococcus hirae; 400 μg/ml poly G) was “competed” and the “competition with binding of receptor to S. agalactiae” value (Streptococcus agalactiae; 400 μg/ml poly G) was “competed”. For the same molecule, the “competition with binding … or LTA” value (soluble MSRP) was “successful competitors”, the “number of cell associated bacteria/100 P388D1 cells” value (“number” for short) (P388D1 cells; poly G 2 μg/ml) was 43±4 bacteria/100 P388D1 cells and the “number” value (P388D1 cells; poly G 20 μg/ml) was 28±9 bacteria/100 P388D1 cells. For the same molecule, the “number” value (P388D1 cells; poly G 200 μg/ml) was 22±5 bacteria/100 P388D1 cells and the “competition of poly G with [35S]s-bSR-I binding to Gram-positive bacteria” value (Gram-positive bacteria; extent of competition varied slightly between organisms) was “competitive”.

B1: s-bSR-I: truncated, secreted trimeric form of the type I bovine macrophage scavenger receptor containing all four extracellular domains, expressed in CHO cells (protein, UniProt P21758 77-453, looked up)
extracellular domain: KWETKNCTVGSVNADISPSPEGKGNGSEDEMRFREAVMERMSNMESRIQYLSDNEANLLDAKNFQNFSITTDQRFNDVLFQLNSLLSSIQEHENIIGDISKSLVGLNTTVLDLQFSIETLNGRVQENAFKQQEEMRKLEERIYNASAEIKSLDEKQVYLEQEIKGEMKLLNNITNDLRLKDWEHSQTLKNITLLQGPPGPPGEKGDRGPPGQNGIPGFPGLIGTPGLKGDRGISGLPGVRGFPGPMGKTGKPGLNGQKGQKGEKGSGSMQRQSNTVRLVGGSGPHEGRVEIFHEGQWGTVCDDRWELRGGLVVCRSLGYKGVQSVHKRAYFGKGTGPIWLNEVFCFGKESSIEECRIRQWGVRACSHDEDAGVTCTT
modifications: extracellular domain
notes: truncated, secreted trimeric form of the type I bovine macrophage scavenger receptor containing all four extracellular domains, expressed in CHO cells
With B1 the “binding of [35S]s-bSR-I to Staphylococcus aureus” value (Staphylococcus aureus) was “bound”, the “[35S]s-bSR-I binding, capsule-minus transposon mutants versus parent strains” value (Staphylococcus aureus; S. aureus isogenic mutants) was “equivalently or better” and the “binding of [35S]s-bSR-I to S. pyogenes” value (Streptococcus pyogenes; eleven strains, seven different M protein types (Table I), overnight 4° C., SDS-PAGE/autoradiography) was “bound”. The “dependence of [35S]s-bSR-I binding on bacterial protein synthesis or viability” value (Streptococcus pyogenes; organisms preincubated with 50 μg/ml chloramphenicol or 0.05% NaN3, or killed at 60° C. for 10 minutes) was “neither decreased”, the “specificity of [35S]s-bSR-I binding to S. pyogenes” value (Streptococcus pyogenes; strain T1/195/2) was “specific” and the “s-bSR-I binding, M protein-negative mutant versus parent” value (Streptococcus pyogenes; type 28 strain T28/150A/5 and spontaneous M protein-negative mutant T28/51/4-4) was “equivalently”. The “[35S]s-bSR-I binding, acapsular mutant versus wild type” value (Streptococcus pyogenes; wild type 87-282 and hyaluronic acid-negative transposon mutant TX4) was “equally well”, the “binding of [35S]s-bSR-I to Bacillus subtilis” value (Bacillus subtilis) was “bound” and the “binding of [35S]s-bSR-I to Listeria monocytogenes” value (Listeria monocytogenes) was “bound”. For the same molecule, the “binding of [35S]s-bSR-I to Enterococcus hirae” value (Enterococcus hirae; strain 9790, overnight 4° C., autoradiography) was “bound”, the “[35S]s-bSR-I binding, capsule-minus transposon mutants versus parent strains” value (Streptococcus agalactiae; S. agalactiae isogenic mutants) was “equivalently or better” and the “binding of [35S]s-bSR-I to S. agalactiae” value (Streptococcus agalactiae; overnight 4° C., autoradiography) was “bound”. For the same molecule, the “binding of [35S]s-bSR-I to Streptococcus mutans” value (Streptococcus mutans) was “bound”, the “binding of [35S]s-bSR-I to S. pneumoniae” value (S. pneumoniae) was “minimal binding” and the “binding of [35S]s-bSR-I to Gram-positive bacteria” value (Gram-positive bacteria) was “bound”. The “binding of [35S]s-bSR-I to Gram-positive bacteria” value (Gram-positive bacteria; listed as secreted Type I Bovine MSRP) was “Bound”.
